The text below walks through data of patent publication EP2245064B1 (MEDIMMUNE LIMITED, dated 2014).

For experiment [1], the target named is human IL-4Rα on TF-1 cells (human) (UniProt P24394). The experiment in a line: cell-based or functional assay.
Experiment [2] has as its target T1, human IL4Rα/Fc (R and D Systems 604-4R) (human, UniProt P24394 26-232).
T1 construct: Bought product; also called human IL4Rα-Fc receptor; IL-4Rα/Fc (R&D systems Cat. No. 604-4R-050)
T1 sequence (looked up): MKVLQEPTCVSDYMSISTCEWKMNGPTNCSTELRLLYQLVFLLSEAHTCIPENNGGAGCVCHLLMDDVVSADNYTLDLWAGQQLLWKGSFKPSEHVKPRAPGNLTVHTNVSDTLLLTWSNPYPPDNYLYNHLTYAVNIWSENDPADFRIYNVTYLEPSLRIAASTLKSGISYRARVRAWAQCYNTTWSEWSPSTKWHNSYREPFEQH
The experiment in a line: HTRF receptor-ligand competition, scFv vs biotinylated human IL4. In general terms: In TR-FRET formats the signal depends on donor and acceptor labels being close together.

The target of experiment [3] is antibody used for epitope mapping in Example 5 (not named). The experiment is described as follows: HTRF competition vs biotinylated human IL-4Rα/Fc for Eu-cryptate antibody.
Experiment [4] has the same target. The experiment is described as above. The source holds these as a separate data set.

For orientation: Ki means the dissociation constant of the complex between target and ligand, obtained from inhibition or displacement. Lower therefore signals a stronger hold on the target. In general, % inhibition refers to the relative decrease from the control value, in per cent. As a reminder, the IC50 is the concentration at which inhibition is half-maximal.

Where two headings read alike, the source gives them in different places.

B1: Antibody 24 (PGL) IgG (antibody, from another filing, V domains shown)
VH: QVQLVQSGAEVKKPGASVKVSCKASGYAFTSYYMHWVRQAPGQGLEWMGIINPRGGSTSYAQKFQGRVTMTRDTSTSTVYMELSSLRSEDTAVYYCARGKYWMYDWGKGTLVTVSS
VL: QSVLTQPPSVSAAPGQKVTISCSGGSSNIGNSYVSWYQQLPGTAPKLLIYDNNKRPSGIPDRFSGSKSGTSATLGITGLQTGDEADYFCGTWDTSTVWEWPFGTGTKLTVL
In experiment [1], B1 displayed an IC50, IL-4 induced TF-1 cell proliferation of 0.0153 nM and an IC50, IL-13 induced TF-1 cell proliferation of 0.055 nM.

B2: Antibody 1 scFv (scFv, V domains shown)
VH: QVQLVQSGAEVKKPGASVKVSCKASGYAFTSYYMHWARQAPGQGLEWMGIINPSGGSTSYAQKFQGRVTMTRDTSTSTVYMELSSLRSEDTAVYYCARGKWWLDYWGKGTLVTVSS
VL: QSVLTQPPSVSAAPGQKVTISCSGGSSNIGNSYVSWYQQLPGTAPKLLIYDNNKRPSGIPDRFSGSKSGTSATLAITGLQTGDEADYYCGTWDTSLSANYVFGTGTKLTVL
In experiment [2], B2 returned a Ki of 12 nM.

B3: MoD1HuD2IL-4Rα (receptor)
chain: IKVLGEPTCFSDYIRTSTCEWFLDSAVDCSSQLCLHYRLMFFEFSENLTCIPRNSASTVCVCHMEMNRPVQSDRYQMELWAEHRQLWQGSFSPSGHVKPRAPGNLTVHTNVSDTLLLTWSNPYPPDNYLYNHLTYAVNIWSENDPADFRIYNVTYLEPSLRIAASTLKSGISYRARVRAWAQCYNTTWSEWSPSTKWHNSYREPFNPAFLYKVVGAADYKDDDDKAAHHHHHHHHHH
In turn, B3 showed a % inhibition at 1000nM in experiment [3] of 34%.

B4: EM19 (receptor)
chain: MKVLQEPTCVSDYMSISTCEWKMNGPTNCSTELRLLYQLMFLEFSENLTCIPENNGGAGCVCHLLMDDVVSADNYTLDLWAGQQLLWKGSFKPSEHVKPRAPGNLTVHTNVSDTLLLTWSNPYPPDNYLYNHLTYAVNIWSENDPADFRIYNVTYLEPSLRIAASTLKSGISYRARVRAWAQCYNTTWSEWSPSTKWHNSYREPFNPAFLYKVVGAADYKDDDDKAAHHHHHHHHHH
With B4, the IC50 in experiment [3] was 4.5 nM.

B5: EM21 (receptor)
chain: MKVLQEPTCVSDYMSISTCEWKMNGPTNCSTELRLLYQLMFFELSENLTCIPENNGGAGCVCHLLMDDVVSADNYTLDLWAGQQLLWKGSFKPSEHVKPRAPGNLTVHTNVSDTLLLTWSNPYPPDNYLYNHLTYAVNIWSENDPADFRIYNVTYLEPSLRIAASTLKSGISYRARVRAWAQCYNTTWSEWSPSTKWHNSYREPFNPAFLYKVVGAADYKDDDDKAAHHHHHHHHHH
Turning to B5, in experiment [3], the IC50 was 5.7 nM.

B6: EM24 (receptor)
chain: MKVLQEPTCVSDYMSISTCEWKMNGPTNCSTELRLLYQLVFFEFSEAHTCIPENNGGAGCVCHLLMDDVVSADNYTLDLWAGQQLLWKGSFKPSEHVKPRAPGNLTVHTNVSDTLLLTWSNPYPPDNYLYNHLTYAVNIWSENDPADFRIYNVTYLEPSLRIAASTLKSGISYRARVRAWAQCYNTTWSEWSPSTKWHNSYREPFNPAFLYKVVGAADYKDDDDKAAHHHHHHHHHH
In experiment [3], B6 registered an IC50 of 13 nM.

B7: EM22 (receptor)
chain: MKVLQEPTCVSDYMSISTCEWKMNGPTNCSTELRLLYQLMFFEFSEALTCIPENNGGAGCVCHLLMDDVVSADNYTLDLWAGQQLLWKGSFKPSEHVKPRAPGNLTVHTNVSDTLLLTWSNPYPPDNYLYNHLTYAVNIWSENDPADFRIYNVTYLEPSLRIAASTLKSGISYRARVRAWAQCYNTTWSEWSPSTKWHNSYREPFNPAFLYKVVGAADYKDDDDKAAHHHHHHHHHH
In experiment [3], B7 gave an IC50 of 19 nM.

B8: MoLoop1HuIL-4Rα (receptor)
chain: MKVLQEPTCVSDYIRTSTCEWKMNGPTNCSTELRLLYQLVFLLSEAHTCIPENNGGAGCVCHLLMDDVVSADNYTLDLWAGQQLLWKGSFKPSEHVKPRAPGNLTVHTNVSDTLLLTWSNPYPPDNYLYNHLTYAVNIWSENDPADFRIYNVTYLEPSLRIAASTLKSGISYRARVRAWAQCYNTTWSEWSPSTKWHNSYREPFNPAFLYKVVGAADYKDDDDKAAHHHHHHHHHH
In experiment [3], B8 showed an IC50 of 1.9 nM.

B9: EM20 (receptor)
chain: MKVLQEPTCVSDYMSISTCEWKMNGPTNCSTELRLLYQLMFFFSENLTCIPENNGGAGCVCHLLMDDVVSADNYTLDLWAGQQLLWKGSFKPSEHVKPRAPGNLTVHTNVSDTLLLTWSNPYPPDNYLYNHLTYAVNIWSENDPADFRIYNVTYLEPSLRIAASTLKSGISYRARVRAWAQCYNTTWSEWSPSTKWHNSYREPFNPAFLYKVVGAADYKDDDDKAAHHHHHHHHHH
B9: in experiment [3], the IC50 was 3.8 nM.

B10: MoLoop4HuIL-4Rα (receptor)
chain: MKVLQEPTCVSDYMSISTCEWKMNGPTNCSTELRLLYQLVFLLSEAHTCIPENNGGAGCVCHLLMDDVVSADNYTLDLWAGQQLLWKGSFKPSEHVKPRAPGNLTVHTNVSDTLLLTWNNLYPSNNYLYNHLTYAVNIWSENDPADFRIYNVTYLEPSLRIAASTLKSGISYRARVRAWAQCYNTTWSEWSPSTKWHNSYREPFNPAFLYKVVGAADYKDDDDKAAHHHHHHHHHH
Take B10: the half-inhibitory concentration (IC50) in experiment [3] came out at 0.663 nM.

B11: MoLoop3HuIL-4Rα (receptor)
chain: MKVLQEPTCVSDYMSISTCEWKMNGPTNCSTELRLLYQLVFLLSEAHTCIPENNGGAGCVCHLEMNRPVQSDRYTLDLWAGQQLLWKGSFKPSEHVKPRAPGNLTVHTNVSDTLLLTWSNPYPPDNYLYNHLTYAVNIWSENDPADFRIYNVTYLEPSLRIAASTLKSGISYRARVRAWAQCYNTTWSEWSPSTKWHNSYREPFNPAFLYKVVGAADYKDDDDKAAHHHHHHHHHH
Take B11: the % inhibition at 1000nM in experiment [3] amounted to 58%; in experiment [4] it was 45%.

B12: EM25 (receptor)
chain: MKVLQEPTCVSDYMSISTCEWKMNGPTNCSTELRLLYQLVFLLSENLTCIPENNGGAGCVCHLLMDDVVSADNYTLDLWAGQQLLWKGSFKPSEHVKPRAPGNLTVHTNVSDTLLLTWSNPYPPDNYLYNHLTYAVNIWSENDPADFRIYNVTYLEPSLRIAASTLKSGISYRARVRAWAQCYNTTWSEWSPSTKWHNSYREPFNPAFLYKVVGAADYKDDDDKAAHHHHHHHHHH
Consider B12, for which the IC50 in experiment [3] was determined as 0.448 nM.

B13: MoLoop5HuIL-4Rα (receptor)
chain: MKVLQEPTCVSDYMSISTCEWKMNGPTNCSTELRLLYQLVFLLSEAHTCIPENNGGAGCVCHLLMDDVVSADNYTLDLWAGQQLLWKGSFKPSEHVKPRAPGNLTVHTNVSDTLLLTWSNPYPPDNYLYNHLTYAVNIWSENDPADFRIYNVTYLEPSLRIAASTLKSGISYRARVRAWSQILTGTWSEWSPSTKWHNSYREPFNPAFLYKVVGAADYKDDDDKAAHHHHHHHHHH
Turning to B13, in experiment [3], the IC50 came to 1.4 nM.
